Assays:
[1] = anti-PilA western, cell-wall extracts, stationary phase; details: glycan lost; control: wild type NEM316
[2] = anti-PilA western, membrane extracts, exponential phase; details: glycan lost; control: wild type NEM316
[3] = anti-PilA western, cell-wall extracts, exponential phase; details: glycan lost; control: wild type NEM316
[4] = anti-PilA western, supernatants of nisin-induced secreted PilA; details: glycan lost; control: wild-type PilAΔCWA
[5] = flow cytometry with anti-PilA antiserum; details: glycan lost; control: wild type NEM316

B1: PilA (Gbs1478), PI-2a pilus tip adhesin: N427Q (protein)
parent chain: MRKYQKFSKILTLSLFCLSQIPLNTNVLGESTVPENGAKGKLVVKKTDDQNKPLSKATFVLKTTAHPESKIEKVTAELTGEATFDNLIPGDYTLSEETAPEGYKKTNQTWQVKVESNGKTTIQNSGDKNSTIGQNHEELDKQYPPTGIYEDTKESYKLEHVKGSVPNGKSEAKAVNPYSSEGEHIREIPEGTLSKRISEVGDLAHNKYKIELTVSGKTIVKPVDKQKPLDVVFVLDNSNSMNNDGPNFQRHNKAKKAAEALGTAVKDILGANSDNRVALVTYGSDIFDGRSVDVVKGFKEDDKYYGLQTKFTIQTENYSHKQLTNNAEEIIKRIPTEAPRAKWGSTTNGLTPEQQKQYYLSKVGETFTMKAFMEADDILSQVDRNSQKIIVHITDGVPTRSYAINNFKLGASYESQFEQMKKNGYLNKSNFLLTDKPEDIKGNGESYFLFPLDSYQTQIISGNLQKLHYLDLNLNYPKGTIYRNGPVREHGTPTKLYINSLKQKNYDIFNFGIDISAFRQVYNEDYKKNQDGTFQKLKEEAFELSDGEITELMKSFSSKPEYYTPIVTSSDASNNEILSKIQQQFEKVLTKENSIVNGTIEDPMGDKINLQLGNGQTLQPSDYTLQGNDGSIMKDSIATGGPNNDGGILKGVKLEYIKNKLYVRGLNLGEGQKVTLTYDVKLDDSFISNKFYDTNGRTTLNPKSEDPNTLRDFPIPKIRDVREYPTITIKNEKKLGEIEFTKVDKDNNKLLLKGATFELQEFNEDYKLYLPIKNNNSKVVTGENGKISYKDLKDGKYQLIEAVSPKDYQKITNKPILTFEVVKGSIQNIIAVNKQISEYHEEGDKHLITNTHIPPKGIIPMTGGKGILSFILIGGSMMSIAGGIYIWKRYKKSSDISREKD
no change: stability_or_folding [1] | expression_or_secretion [2] | expression_or_secretion [3] | stability_or_folding [4] | expression_or_secretion [5]

B2: PilA (Gbs1478), PI-2a pilus tip adhesin: N427Q-N597Q (protein)
parent chain: MRKYQKFSKILTLSLFCLSQIPLNTNVLGESTVPENGAKGKLVVKKTDDQNKPLSKATFVLKTTAHPESKIEKVTAELTGEATFDNLIPGDYTLSEETAPEGYKKTNQTWQVKVESNGKTTIQNSGDKNSTIGQNHEELDKQYPPTGIYEDTKESYKLEHVKGSVPNGKSEAKAVNPYSSEGEHIREIPEGTLSKRISEVGDLAHNKYKIELTVSGKTIVKPVDKQKPLDVVFVLDNSNSMNNDGPNFQRHNKAKKAAEALGTAVKDILGANSDNRVALVTYGSDIFDGRSVDVVKGFKEDDKYYGLQTKFTIQTENYSHKQLTNNAEEIIKRIPTEAPRAKWGSTTNGLTPEQQKQYYLSKVGETFTMKAFMEADDILSQVDRNSQKIIVHITDGVPTRSYAINNFKLGASYESQFEQMKKNGYLNKSNFLLTDKPEDIKGNGESYFLFPLDSYQTQIISGNLQKLHYLDLNLNYPKGTIYRNGPVREHGTPTKLYINSLKQKNYDIFNFGIDISAFRQVYNEDYKKNQDGTFQKLKEEAFELSDGEITELMKSFSSKPEYYTPIVTSSDASNNEILSKIQQQFEKVLTKENSIVNGTIEDPMGDKINLQLGNGQTLQPSDYTLQGNDGSIMKDSIATGGPNNDGGILKGVKLEYIKNKLYVRGLNLGEGQKVTLTYDVKLDDSFISNKFYDTNGRTTLNPKSEDPNTLRDFPIPKIRDVREYPTITIKNEKKLGEIEFTKVDKDNNKLLLKGATFELQEFNEDYKLYLPIKNNNSKVVTGENGKISYKDLKDGKYQLIEAVSPKDYQKITNKPILTFEVVKGSIQNIIAVNKQISEYHEEGDKHLITNTHIPPKGIIPMTGGKGILSFILIGGSMMSIAGGIYIWKRYKKSSDISREKD
no change: expression_or_secretion [2] | expression_or_secretion [3] | expression_or_secretion [5]

B3: PilA (Gbs1478), PI-2a pilus tip adhesin: N597Q (protein)
parent chain: MRKYQKFSKILTLSLFCLSQIPLNTNVLGESTVPENGAKGKLVVKKTDDQNKPLSKATFVLKTTAHPESKIEKVTAELTGEATFDNLIPGDYTLSEETAPEGYKKTNQTWQVKVESNGKTTIQNSGDKNSTIGQNHEELDKQYPPTGIYEDTKESYKLEHVKGSVPNGKSEAKAVNPYSSEGEHIREIPEGTLSKRISEVGDLAHNKYKIELTVSGKTIVKPVDKQKPLDVVFVLDNSNSMNNDGPNFQRHNKAKKAAEALGTAVKDILGANSDNRVALVTYGSDIFDGRSVDVVKGFKEDDKYYGLQTKFTIQTENYSHKQLTNNAEEIIKRIPTEAPRAKWGSTTNGLTPEQQKQYYLSKVGETFTMKAFMEADDILSQVDRNSQKIIVHITDGVPTRSYAINNFKLGASYESQFEQMKKNGYLNKSNFLLTDKPEDIKGNGESYFLFPLDSYQTQIISGNLQKLHYLDLNLNYPKGTIYRNGPVREHGTPTKLYINSLKQKNYDIFNFGIDISAFRQVYNEDYKKNQDGTFQKLKEEAFELSDGEITELMKSFSSKPEYYTPIVTSSDASNNEILSKIQQQFEKVLTKENSIVNGTIEDPMGDKINLQLGNGQTLQPSDYTLQGNDGSIMKDSIATGGPNNDGGILKGVKLEYIKNKLYVRGLNLGEGQKVTLTYDVKLDDSFISNKFYDTNGRTTLNPKSEDPNTLRDFPIPKIRDVREYPTITIKNEKKLGEIEFTKVDKDNNKLLLKGATFELQEFNEDYKLYLPIKNNNSKVVTGENGKISYKDLKDGKYQLIEAVSPKDYQKITNKPILTFEVVKGSIQNIIAVNKQISEYHEEGDKHLITNTHIPPKGIIPMTGGKGILSFILIGGSMMSIAGGIYIWKRYKKSSDISREKD
no change: stability_or_folding [1] | expression_or_secretion [2] | expression_or_secretion [3] | stability_or_folding [4] | expression_or_secretion [5]

Source: paper PMC4583379
